Read-outs that look alike come from different tables or passages of the source. Square brackets hold non-standard residues; d marks the D form. Ends that are not written are not given here. Cya = N[C@@H](CS(=O)(=O)O)C(=O)O
Columns and labels:
[1] = target: integrins (on human umbilical vein endothelial cells, HUVEC) (human); assay: cell-based or functional assay
[2] = target: integrins (on human umbilical vein endothelial cells, HUVEC) (human); assay: cell-based or functional assay; remark: listed apart in the source

| inhibition of HUVEC wound healing (scratch assay on fibronectin coated surface; peptide 1 mM) after 24 hours [1] [%] | inhibition of cell adhesion in a model of wound healing using HUVEC, 12 hours [1] [%] | inhibition of HUVEC wound healing (scratch assay on fibronectin coated surface; peptide 10 mM) after 24 hours [2] [%] | inhibition of cell adhesion in a model of wound healing using HUVEC, 12 hours [2] [%] | Molecule |
| --- | --- | --- | --- | --- |
| 45 | 40 |  |  | Cyclic RGD (RGD-based peptide; N-methylated cyclic-RGDf-N(Me)V; Cilengitide) |
|  |  | 70 | 74 | GRG[Cya]TP-OH [Glycinyl-Arginyl-Glycinyl-Cysteic-Threonyl-Proline-COOH (GRG Cysteic Acid TP)] |

Source: patent US20190309018A1
